In paper PMC9071424, “Microarray screening reveals two non-conventional SUMO-binding modules linked to DNA repair by non-homologous end-joining” (Nucleic Acids Research, 2022):

Molecular target: T1, XLF-6×His (human, UniProt Q9H9Q4 1-299)
T1 construct: XLF (NHEJ1), human, amplified from pGEX2TKP-XLF and subcloned into pHAT5; source: E. coli BL21-CodonPlus (DE3)-RIL, purified (HP His-trap, HiTrap Q HP)
Experiment: BLI; XLF binding of XRCC4 1–164 and its mutants
Conditions: both partners purified

T1 sequence (Q9H9Q4 whole entry): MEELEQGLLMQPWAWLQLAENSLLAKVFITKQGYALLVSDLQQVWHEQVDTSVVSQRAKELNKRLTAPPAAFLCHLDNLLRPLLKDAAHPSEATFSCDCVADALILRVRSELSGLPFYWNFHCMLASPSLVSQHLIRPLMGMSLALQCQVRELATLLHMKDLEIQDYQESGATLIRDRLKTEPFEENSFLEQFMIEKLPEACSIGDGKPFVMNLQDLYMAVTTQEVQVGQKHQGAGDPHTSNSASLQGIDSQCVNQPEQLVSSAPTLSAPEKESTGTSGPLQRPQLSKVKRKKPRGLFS

B1: 6×His-XRCC4^1–164 (C-to-A) (domain or fragment, human, UniProt Q13426 1-164, looked up)
chain: MERKISRIHLVSEPSITHFLQVSWEKTLESGFVITLTDGHSAWTGTVSESEISQEADDMAMEKGKYVGELRKALLSGAGPADVYTFNFSKESAYFFFEKNLKDVSFRLGSFNLEKVENPAEVIRELIAYALDTIAENQAKNEHLQKENERLLRDWNDVQGRFEK
modifications: 15N-labelled where it was the observed protein in NMR
notes: pET-28a vector; also called XRCC4 head domain; not shown: 6×His, N-terminal, kept
  binding result: binds
